This note sets out measurements from patent publication US20110190477A1 (published 2011).

T1: human C5a receptor (UniProt P21730 1-350)
T1 chain: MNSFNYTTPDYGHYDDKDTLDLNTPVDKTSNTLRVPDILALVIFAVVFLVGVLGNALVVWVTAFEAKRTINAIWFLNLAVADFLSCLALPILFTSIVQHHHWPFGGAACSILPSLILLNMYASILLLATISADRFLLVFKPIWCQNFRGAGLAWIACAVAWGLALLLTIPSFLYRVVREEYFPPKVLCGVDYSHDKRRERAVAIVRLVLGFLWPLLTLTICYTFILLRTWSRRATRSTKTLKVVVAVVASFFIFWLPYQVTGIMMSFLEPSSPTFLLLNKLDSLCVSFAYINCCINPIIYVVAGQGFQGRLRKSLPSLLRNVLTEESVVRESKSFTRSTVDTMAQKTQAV

B1: humanized anti-C5aR antibody hAb-Q (antibody)
light: DVVMTQSPLSLPVTLGEPASISCRSSQSLVHSNGNTYLHWYLQKPGQSPQLLIYKVSNRFSGVPDRFSGSGSGTDFTLKISRVEAEDVGVYFCSQSTLVPLTFGQGTKLEIKRTVAAPSVFIFPPSDEQLKSGTASVVCLLNNFYPREAKVQWKVDNALQSGNSQESVTEQDSKDSTYSLSSTLTLSKADYEKHKVYACEVTHQGLSSPVTKSFNRGEC
heavy: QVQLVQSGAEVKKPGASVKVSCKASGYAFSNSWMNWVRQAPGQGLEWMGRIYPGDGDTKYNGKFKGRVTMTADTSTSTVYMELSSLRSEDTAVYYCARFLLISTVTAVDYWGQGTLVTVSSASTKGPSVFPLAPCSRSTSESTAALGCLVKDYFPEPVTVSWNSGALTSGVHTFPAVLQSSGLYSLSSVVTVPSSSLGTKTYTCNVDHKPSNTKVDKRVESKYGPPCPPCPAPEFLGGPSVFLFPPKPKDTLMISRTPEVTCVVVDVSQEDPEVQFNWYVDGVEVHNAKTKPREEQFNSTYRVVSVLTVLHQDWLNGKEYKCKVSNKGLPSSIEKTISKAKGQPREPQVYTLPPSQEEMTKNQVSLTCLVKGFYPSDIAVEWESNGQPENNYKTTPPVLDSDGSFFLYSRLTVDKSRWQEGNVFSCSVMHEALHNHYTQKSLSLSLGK
B2: mouse anti-C5aR monoclonal antibody 7F3 (antibody, V domains shown)
VH: QVQLQQSGPELVKPGASVKISCKASGYAFSNSWMNWVKQRPGKGLEWIGRIYPGDGDTKYNGKFKGKATLTADKSSSTAYMQLSSLTSEDSAVYFCARFLLISTVTAVDYWGQGTTLTVSS
VL: DVVMTQSPLSLPVSLGNQASISCRSSQSLVHSNGNTYLHWYLQKPGQSPKLLIYKVSNRFSGVPDRFSGSGSGTDFSLKISRVEAEDLGVYFCSQSTLVPLTFGAGTKLELK
B3: humanized anti-C5aR antibody hAb-J (antibody)
light: DVVMTQSPLSLPVTLGEPASISCRSSQSLVHSNGNTYLHWYLQKPGQSPQLLIYKVSNRFSGVPDRFSGSGSGTDFTLKISRVEAEDVGVYFCSQSTLVPLTFGQGTKLEIKTVAAPSVFIFPPSDEQLKSGTASVVCLLNNFYPREAKVQWKVDNALQSGNSQESVTEQDSKDSTYSLSSTLTLSKADYEKHKVYACEVTHQGLSSPVTKSFNRGEC
heavy: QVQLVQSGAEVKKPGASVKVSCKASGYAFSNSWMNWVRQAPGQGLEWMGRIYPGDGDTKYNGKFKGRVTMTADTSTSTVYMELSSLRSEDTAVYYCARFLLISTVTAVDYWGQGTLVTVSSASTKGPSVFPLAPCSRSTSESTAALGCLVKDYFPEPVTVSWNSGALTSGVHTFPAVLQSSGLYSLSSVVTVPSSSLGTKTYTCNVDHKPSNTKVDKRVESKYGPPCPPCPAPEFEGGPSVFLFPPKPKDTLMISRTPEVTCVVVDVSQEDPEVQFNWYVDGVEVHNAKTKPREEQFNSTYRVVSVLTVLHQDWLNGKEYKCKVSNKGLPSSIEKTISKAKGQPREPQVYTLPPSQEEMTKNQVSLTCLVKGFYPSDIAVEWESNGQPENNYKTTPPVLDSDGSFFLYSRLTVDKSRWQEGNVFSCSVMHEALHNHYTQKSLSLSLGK

The target in the first assay is T1, human C5a receptor. Kind of assay: saturation binding to human neutrophils (flow cytometry, MFI); 4 C. Background: In flow cytometry, cells or beads pass a laser one at a time.
The term Kd denotes the equilibrium constant for the complex coming apart. A lower Kd goes with a tighter complex. As for B1, the Kd is 22.6 nM.
The same measure, in the same setting: for B2 the value was 9.2 nM; for B3, 25.4 nM.

The target in another assay is T1, human C5a receptor. The assay is described as above. This is another data set of the same source.
As a reminder, the EC50 is the concentration giving half of the maximal effect. Read a high EC50 as weaker potency. Regarding B1, the 50% effective concentration (EC50) was 21.6 nM.
On the same count and under the same terms, for B2 the value was 8.51 nM; for B3, 20.1 nM.
